B1: Focal adhesion kinase 1 (Rattus norvegicus (Rat)), O35346 (parent)
chain: MAAAYLDPNLNHTPSSSTKTHLGTGTERSPGAMERVLKVFHYFESSNEPTTWASIIRHGDATDVRGIIQKIVDSHKVKHVACYGFRLSHLRSEEVHWLHVDMGVSSVREKYELAHPPEEWKYELRIRYLPKGFLNQFTEDKPTLNFFYQQVKSDYMLEIADQVDQDIALKLGCLEIRRSYWEMRGNALEKKSNYEVLEKDVGLKRFFPKSLLDSVKAKTLRKLIQQTFRQFANLNREESILKFFEILSPVYRFDKECFKCALGSSWIISVELAIGPEEGISYLTDKGCNPTHLADFNQVQTIQYSNSEDKDRKGMLQLKIAGAPEPLTVTAPSLTIAENMADLIDGYCRLVNGATQSFIIRPQKEGERALPSIPKLANNEKQGMRTHAVSVSETDDYAEIIDEEDTYTMPSTRDYEIQRERIELGRCIGEGQFGDVHQGVYLSPENPALAVAIKTCKNCTSDSVREKFLQEALTMRQFDHPHIVKLIGVITENPVWIIMELCTLGELRSFLQVRKYSLDLASLILYAYQLSTALAYLESKRFVHRDIAARNVLVSSNDCVKLGDFGLSRYMEDSTYYKASKGKLPIKWMAPESINFRRFTSASDVWMFGVCMWEILMHGVKPFQGVKNNDVIGRIENGERLPMPPNCPPTLYSLMTKCWAYDPSRRPRFTELKAQLSTILEEEKVQQEERMRMESRRQATVSWDSGGSDEAPPKPSRPGYPSPRSSEGFYPSPQHMVQTNHYQISGYPGSHGIPAMAGSIYPGQASLLDQTELWNHRPQEMSMWQPSVEDSAALDLRGMGQVLPPHLMEERLIRQQQEMEEDQRWLEKEERFLKPDVRLSRGSIDREDGSFQGPTGNQHIYQPVGKPDPAAPPKKPPRPGAPGHLSNLSSISSPAESYNEGVKPWRLQPQEISPPPTANLDRSNDKVYENVTGLVKAVIEMSSKIQPAPPEEYVPMVKEVGLALRTLLATVDETIPILPASTHREIEMAQKLLNSDLGELISKMKLAQQYVMTSLQQEYKKQMLTAAHALAVDAKNLLDVIDQARLKMLGQTRPH

Variants of: B1
Settings: with paxi_mouse Pxn

Variant	effect of a mutation on the interaction
W266A	disrupting interaction

Source: IntAct's records for PubMed 24480479
